The record followed here is patent publication US20220372463A1.

This experiment deals with Streptococcus pyogenes Cas9 endonuclease (Streptococcus pyogenes) (UniProt Q99ZW2). The experiment in a line: cell-based or functional assay.

Turning to “AcrIIA4 N39A as the auto-inhibitory domain of CascAID N39A”, the fold decrease of the transition rate to the inhibited state relative to CascAID with wild-type AcrIIA4 is 16 fold, the kact (constant activation parameter for all CascAID variants; best fit of the ODE model to editing data) was determined as 1.13 h⁻¹ and the γ3 (inhibitor strength: fold-change relative to the inhibition rate of CascAID wt; best fit of the ODE model) was 0.0609 unitless.

In turn, “wild-type AcrIIA4 as the auto-inhibitory domain of CascAID wt (Cas9 fused to wild-type AcrIIA4)” returned a kact (constant activation parameter for all CascAID variants; best fit of the ODE model to editing data) of 1.13 h⁻¹ and a kinh, CascAID (inhibition parameter for CascAID wt; best fit of the ODE model to editing data; marked not identifiable) of 618 h⁻¹.

For “AcrIIA4 D14A/G38A as the auto-inhibitory domain of CascAID D14A/G38A”, the fold decrease of the transition rate to the inhibited state relative to CascAID with wild-type AcrIIA4 was found to be 19 fold, the kact (constant activation parameter for all CascAID variants; best fit of the ODE model to editing data) was found to be 1.13 h⁻¹ and the γ4 (inhibitor strength: fold-change relative to the inhibition rate of CascAID wt; best fit of the ODE model) was found to be 0.0519 unitless.
